Paper PMC10499821 (2023)
Where no end group is shown, it is not given here. The star is where a group is joined. FITC = O=C1OC2(c3ccc(O)cc3Oc3cc(O)ccc32)c2ccc(NC(=S)*)cc21

B1: AXIN1_(1–15) (peptide)
peptide: MNIQEQGFPLDLGAS
B2: Nsp9 (natural protein)
chain: NNELSPVALRQMSCAAGTTQTACTDDNALAYYNTTKGGRFVLALLSDLQDLKWARFPKSDGTGTIYTELEPPCRFVTDTPKGPKVKYLYFIKGLNNLNRGMVLGSLAATVRLQ
B3: NEK9 737-751 (peptide)
chain: SSGLSIGTVFQSSSPY
B4: LMTK3 22-36 (peptide)
chain: YPAHPDGFALGRAPLA
B5: MBOAT1_(16–31) (peptide)
peptide: GSTYLHPLSELLGIPL
B6: FITC-DNAH2 92-107 (peptide)
chain: {FITC}-AVWTQEHDAILEHFAQ
B7: PRDM14_(197–213) (peptide)
peptide: FTEEDLHFVLYGVTPS
B8: N_(216–231) peptide (peptide)
peptide: DAALALLLLDRLNQLE
B9: RIF1 1780-1795 (peptide)
chain: NPYSEGQFLDEHHSVN
B10: MCM9 796-811 (peptide)
chain: DIGLLPSPGETGVPWR
B11: LMTK3_(22–36) (peptide)
peptide: PAHPDGFALGRAPLA
B12: FITC-DYRK1B 394-409 (peptide)
chain: {FITC}-PGHSPADYLRFQDLVL
B13: AXIN1 1-15 (peptide)
chain: MNIQEQGFPLDLGASY
B14: MVB12A 166-180 (peptide)
chain: MQGLSLDAASQPSKGY
B15: NYNRIN_(1031–1046) (peptide)
peptide: CPSLSEEILRCLSLHD
B16: NKRF_(8–23) (peptide)
peptide: AEGIDIGEMPSYDLVL
B17: NOTCH4 1605-1620 (peptide)
chain: FQGAWLGCPEPWEPLL
B18: NCOA2_(1074–1089) (peptide)
peptide: SDEGALLDQLYLALRN

Key:
Nsp9 [1] = target: B2; test: FP
NEK9 737-751 = test: FP
MCM9 796-811 = test: FP
RIF1 1780-1795 = test: FP
MVB12A 166-180 = test: FP
Nsp9 [2] = target: Nsp9
Nsp3 ADRP = Nsp3 ADRP (SARS-CoV-2, UniProt P0DTD1 819-2763); test: FP
Nsp3 SUD-M = Nsp3 SUD-M (SARS-CoV-2, UniProt P0DTD1 819-2763); test: FP
Nsp3 Ubl1 = Nsp3 Ubl1 (SARS-CoV-2, UniProt P0DTD1 819-2763); test: FP

B1
Kd (Nsp9 [1]): 49 µM

B2
Kd (NEK9 737-751): 111 µM
Kd (MCM9 796-811): ~3200 µM
Kd (RIF1 1780-1795): 88 µM
Kd (MVB12A 166-180): 450 µM

B3
Kd (Nsp9 [2]): 111 µM

B4
Kd (Nsp9 [2]): 34 µM

B5
Kd (Nsp3 ADRP): 104 µM

B6
Kd (Nsp8): ~190 µM

B7
Kd (Nsp3 SUD-M): 37 µM

B8
Kd (Nsp3 Ubl1): 64 µM

B9
Kd (Nsp9 [2]): 88 µM

B10
Kd (Nsp9 [2]): ~3200 µM

B11
Kd (Nsp9 [1]): 34 µM

B12
Kd (Nsp16): 3.2 µM

B13
Kd (Nsp9 [2]): 49 µM

B14
Kd (Nsp9 [2]): 450 µM

B15
Kd (Nsp3 Ubl1): 150 µM

B16
Kd (Nsp9 [1]): 50 µM

B17
Kd (Nsp9 [2]): 125 µM

B18
Kd (Nsp3 Ubl1): 26 µM
